Data published in EP2123670B1 (Bioxodes SA, dated 2017).

Assays:
[1] = biological target: T1, factor IX (UniProt P00740 47-461); assay: SPR (BIAcore X), Ir-CPI immobilised at 1500 RU on CM5, factor injected
T1 construct: Zymogen; also called fIX

[2] = biological target: T2, factor X (UniProt P00742 41-488); assay: as above
T2 construct: Zymogen; also called fX

[3] = biological target: T3, thrombin (UniProt P00734 328-622); assay: as above
T3 construct: also called factor IIa; IIa

[4] = biological target: T4, factor VIIa (UniProt P08709 61-466); assay: as above
T4 construct: also called fVIIa; FVIIa
T4 sequence (looked up): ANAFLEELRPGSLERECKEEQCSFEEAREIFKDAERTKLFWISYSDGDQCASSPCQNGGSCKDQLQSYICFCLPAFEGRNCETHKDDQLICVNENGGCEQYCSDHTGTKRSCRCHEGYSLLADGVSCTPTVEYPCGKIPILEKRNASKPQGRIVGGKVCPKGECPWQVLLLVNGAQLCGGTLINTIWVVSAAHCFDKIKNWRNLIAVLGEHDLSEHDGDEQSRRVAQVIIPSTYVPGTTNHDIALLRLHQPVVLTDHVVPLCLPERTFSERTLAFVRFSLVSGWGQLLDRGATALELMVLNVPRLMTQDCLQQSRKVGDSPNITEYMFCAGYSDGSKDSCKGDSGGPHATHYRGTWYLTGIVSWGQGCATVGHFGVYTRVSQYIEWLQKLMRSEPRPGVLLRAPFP

[5] = biological target: t-PA (UniProt P00750 36-562); assay: as above
Chain of t-PA (P00750 36-562 limits assumed): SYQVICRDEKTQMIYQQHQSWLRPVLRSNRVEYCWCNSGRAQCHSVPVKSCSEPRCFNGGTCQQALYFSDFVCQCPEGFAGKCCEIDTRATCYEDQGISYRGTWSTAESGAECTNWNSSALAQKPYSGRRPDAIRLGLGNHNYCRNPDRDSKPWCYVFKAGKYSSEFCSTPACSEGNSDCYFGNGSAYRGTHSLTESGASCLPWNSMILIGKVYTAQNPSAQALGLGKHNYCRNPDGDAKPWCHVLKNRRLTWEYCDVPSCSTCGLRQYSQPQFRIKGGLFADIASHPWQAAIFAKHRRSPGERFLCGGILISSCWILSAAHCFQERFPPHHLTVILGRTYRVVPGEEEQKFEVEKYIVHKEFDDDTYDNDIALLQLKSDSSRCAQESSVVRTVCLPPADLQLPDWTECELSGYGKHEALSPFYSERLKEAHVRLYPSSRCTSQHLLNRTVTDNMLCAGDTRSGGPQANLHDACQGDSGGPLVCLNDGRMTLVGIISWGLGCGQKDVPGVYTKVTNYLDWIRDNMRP

[6] = biological target: T5, plasminogen (UniProt P00747 20-810, limits assumed); assay: as above
T5 construct: Zymogen
T5 sequence (P00747 20-810 limits assumed): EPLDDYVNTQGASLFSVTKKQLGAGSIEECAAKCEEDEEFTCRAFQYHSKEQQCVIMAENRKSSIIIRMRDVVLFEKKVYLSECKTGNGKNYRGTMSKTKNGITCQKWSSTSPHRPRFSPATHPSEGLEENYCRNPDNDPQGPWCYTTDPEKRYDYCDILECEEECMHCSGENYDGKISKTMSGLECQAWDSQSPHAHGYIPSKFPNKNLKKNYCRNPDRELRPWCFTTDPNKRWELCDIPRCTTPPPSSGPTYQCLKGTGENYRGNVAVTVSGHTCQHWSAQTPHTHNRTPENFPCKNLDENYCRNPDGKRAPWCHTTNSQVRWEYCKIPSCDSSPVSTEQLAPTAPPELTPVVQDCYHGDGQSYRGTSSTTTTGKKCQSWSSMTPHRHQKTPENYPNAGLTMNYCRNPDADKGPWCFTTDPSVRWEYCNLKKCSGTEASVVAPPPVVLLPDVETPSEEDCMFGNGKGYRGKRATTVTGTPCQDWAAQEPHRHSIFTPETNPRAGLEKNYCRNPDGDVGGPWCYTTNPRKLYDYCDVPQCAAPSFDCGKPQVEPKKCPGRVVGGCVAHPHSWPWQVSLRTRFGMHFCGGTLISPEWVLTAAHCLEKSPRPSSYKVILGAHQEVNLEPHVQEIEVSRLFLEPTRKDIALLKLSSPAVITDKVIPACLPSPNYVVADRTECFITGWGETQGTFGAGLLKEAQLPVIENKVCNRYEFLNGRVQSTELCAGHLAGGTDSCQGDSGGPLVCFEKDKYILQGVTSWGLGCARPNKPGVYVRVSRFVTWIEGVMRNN

[7] = biological target: T6, high molecular weight kininogen (UniProt P01042 19-644); assay: as above
T6 construct: also called HMWK
T6 sequence (looked up): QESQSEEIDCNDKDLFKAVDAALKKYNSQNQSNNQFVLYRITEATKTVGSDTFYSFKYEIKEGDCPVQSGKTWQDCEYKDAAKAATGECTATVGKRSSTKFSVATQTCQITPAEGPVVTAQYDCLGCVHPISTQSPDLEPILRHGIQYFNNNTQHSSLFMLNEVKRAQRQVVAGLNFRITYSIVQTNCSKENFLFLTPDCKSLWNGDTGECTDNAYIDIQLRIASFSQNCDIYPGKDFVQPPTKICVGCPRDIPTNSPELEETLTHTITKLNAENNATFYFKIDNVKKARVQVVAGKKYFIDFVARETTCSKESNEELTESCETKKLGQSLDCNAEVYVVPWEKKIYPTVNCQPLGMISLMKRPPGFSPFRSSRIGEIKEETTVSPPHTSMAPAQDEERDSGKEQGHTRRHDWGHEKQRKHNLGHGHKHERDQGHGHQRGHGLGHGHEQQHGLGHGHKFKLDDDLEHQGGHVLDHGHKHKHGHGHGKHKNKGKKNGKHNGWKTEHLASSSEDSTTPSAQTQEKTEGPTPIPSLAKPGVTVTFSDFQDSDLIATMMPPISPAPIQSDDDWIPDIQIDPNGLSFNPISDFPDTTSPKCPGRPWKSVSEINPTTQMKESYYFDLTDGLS

[8] = biological target: T7, plasma kallikrein (UniProt P03952 20-638); assay: SPR, Ir-CPI immobilised; two-state model, forward rate of the conformation change
T7 construct: The active enzyme is the cleaved two-chain form of the precursor
T7 sequence (P03952 20-638 limits assumed): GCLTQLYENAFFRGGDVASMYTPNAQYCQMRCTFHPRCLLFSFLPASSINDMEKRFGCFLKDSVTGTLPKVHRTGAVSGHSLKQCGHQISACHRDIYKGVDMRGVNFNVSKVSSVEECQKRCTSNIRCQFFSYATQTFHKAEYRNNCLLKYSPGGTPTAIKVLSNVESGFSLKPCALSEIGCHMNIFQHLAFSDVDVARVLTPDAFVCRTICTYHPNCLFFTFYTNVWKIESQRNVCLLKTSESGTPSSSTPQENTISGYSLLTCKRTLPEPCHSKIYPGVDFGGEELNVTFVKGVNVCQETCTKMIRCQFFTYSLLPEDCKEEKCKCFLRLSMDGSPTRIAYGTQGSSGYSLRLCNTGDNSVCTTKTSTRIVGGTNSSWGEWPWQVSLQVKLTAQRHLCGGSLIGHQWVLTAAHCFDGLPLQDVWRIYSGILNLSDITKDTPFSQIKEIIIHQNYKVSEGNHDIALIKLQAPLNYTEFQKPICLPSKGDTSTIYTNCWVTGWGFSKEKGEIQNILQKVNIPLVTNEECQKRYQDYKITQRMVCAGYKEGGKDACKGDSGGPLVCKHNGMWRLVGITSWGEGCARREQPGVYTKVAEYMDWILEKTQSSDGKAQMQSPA

[9] = biological target: T8, factor XIa (UniProt P03951 19-625); assay: as above
T8 construct: also called fXIa; FXIa

[10] = biological target: T9, plasmin (UniProt P00747 97-810); assay: as above
T9 sequence (P00747 97-810 limits assumed): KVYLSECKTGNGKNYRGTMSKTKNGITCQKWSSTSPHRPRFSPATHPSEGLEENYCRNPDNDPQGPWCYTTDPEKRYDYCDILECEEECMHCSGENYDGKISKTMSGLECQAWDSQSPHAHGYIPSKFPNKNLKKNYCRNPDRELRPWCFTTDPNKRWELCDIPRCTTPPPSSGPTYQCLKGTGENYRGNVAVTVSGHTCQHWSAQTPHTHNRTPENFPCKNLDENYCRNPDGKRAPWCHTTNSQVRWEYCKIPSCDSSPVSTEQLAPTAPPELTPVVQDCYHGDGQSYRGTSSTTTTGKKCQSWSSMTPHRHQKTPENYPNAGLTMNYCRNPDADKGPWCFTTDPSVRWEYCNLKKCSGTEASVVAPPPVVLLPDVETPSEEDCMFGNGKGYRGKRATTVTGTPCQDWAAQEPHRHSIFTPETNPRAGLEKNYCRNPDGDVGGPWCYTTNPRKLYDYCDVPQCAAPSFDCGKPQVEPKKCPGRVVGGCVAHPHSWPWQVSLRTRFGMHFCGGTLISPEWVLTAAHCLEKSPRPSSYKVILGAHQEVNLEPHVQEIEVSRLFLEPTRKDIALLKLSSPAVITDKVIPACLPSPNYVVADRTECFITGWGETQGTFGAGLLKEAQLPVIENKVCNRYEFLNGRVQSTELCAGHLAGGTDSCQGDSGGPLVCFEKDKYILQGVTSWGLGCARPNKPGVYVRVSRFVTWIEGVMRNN

[11] = biological target: T7, plasma kallikrein; assay: SPR, Ir-CPI immobilised; two-state model, backward rate of the conformation change
[12] = biological target: T8, factor XIa; assay: as above
[13] = biological target: T9, plasmin; assay: as above
[14] = biological target: T7, plasma kallikrein; assay: SPR, Ir-CPI immobilised; two-state model, global equilibrium constant K = ka1ka2/kd1kd2
[15] = biological target: T8, factor XIa; assay: as above
[16] = biological target: T9, plasmin; assay: as above
[17] = biological target: T7, plasma kallikrein; assay: SPR (BIAcore X), Ir-CPI immobilised at about 200 RU, factor injected at 5-300 nM; two-state model, ka1 (first step)
[18] = biological target: T8, factor XIa; assay: as above
[19] = biological target: T9, plasmin; assay: as above
[20] = biological target: T7, plasma kallikrein; assay: SPR (BIAcore X), Ir-CPI immobilised at about 200 RU, factor injected at 5-300 nM; two-state model, kd1 (first step)
[21] = biological target: T8, factor XIa; assay: as above
[22] = biological target: T9, plasmin; assay: as above

B1: Ir-CPI (other)
chain: ANHKGRGRPAKCKLPPDDGPCRARIPSYYFDRKTKTCKEFMYGGCEGNENNFENITTCQEECRAKKV
notes: Expressed in E. coli as a GST fusion (pGEX-6P-1), released with PreScission protease and purified by gel filtration; Immobilised on a CM5 chip by amine coupling in the SPR assays; also called recombinant Ir-CPI
B1: no binding (tested: 100 nM) [1]; no binding (tested: 100 nM) [2]; no binding (tested: 100 nM) [3]. B1: no binding (tested: 100 nM) [4]; no binding (tested: 100 nM) [5]; no binding (tested: 100 nM) [6]. For the same binder, the binding result [7] was “no binding (tested: 100 nM)”, the ka2 [8] was 0.00834 s⁻¹ and the ka2 [9] was 0.0298 s⁻¹. It also gave a ka2 [10] of 0.00582 s⁻¹, a kd2 [11] of 0.00142 s⁻¹ and a kd2 [12] of 0.00232 s⁻¹. For the same binder, the kd2 [13] was 0.00614 s⁻¹, the Ka [14] was 4.51e+06 M⁻¹ and the Ka [15] was 3.83e+08 M⁻¹. It also gave a Ka [16] of 3.3e+08 M⁻¹, a kon [17] of 34900 M⁻¹ s⁻¹ and a kon [18] of 2.31e+06 M⁻¹ s⁻¹. It also gave a kon [19] of 900000 M⁻¹ s⁻¹, a koff [20] of 0.0532 s⁻¹ and a koff [21] of 0.102 s⁻¹. The koff [22] was 0.00535 s⁻¹.
